Test results reported in publication PMC8615749, “Human Parainfluenza Virus 3 Phosphoprotein Is a Tetramer and Shares Structural and Interaction Features with Ebola Phosphoprotein VP35” (Biomolecules, 2021).

B1: PMDL, recombinant construct of the human parainfluenza virus 3 phosphoprotein (HPIV3 P): short P_TAI (domain or fragment)
chain: SDHKPTSKGQKKISKTTTTNTDTKGQTETQTESSETQSNVDTASKIDFLAGLVIGVSMDNDTKLIQIQNEMLNLKADLKRMDESHRRLIENQREQLSLITSLISNLKIMT
notes: source: E. coli Rosetta DE3, purified (TALON His-Tag resin, SEC Superdex 75)
B2: Zaire Ebolavirus (EBOV) phosphoprotein VP35, construct of residues 65-145 (LC8 anchor 65-82 and mult (domain or fragment)
chain: NPKTRNSQTQTDPICNHSFEEVVQTLASLATVVQQQTIASESLEQRITSLENGLKPVYDMAKTISSLNRVCAEMVAKYDLL
notes: also called VP35 65-145; EBOV VP35 65-145

Tests used:
[1] = molecular target: T1, LC8 (DYNLL1), recombinant (human, UniProt P63167 1-89); assay: ITC; settings: both partners purified
T1 construct: also called human LC8

SEC-MALS = molecular target: the molecule itself; assay: SEC-MALS

T1 sequence (P63167 whole entry): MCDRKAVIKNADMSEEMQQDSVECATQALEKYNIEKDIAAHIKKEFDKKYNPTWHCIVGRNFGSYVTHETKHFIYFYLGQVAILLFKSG

Row | Binder | Kd [1] | stoichiometry N (SEC-MALS)
1 | B1 | ~50 µM | 4
2 | B2 | 0.13 µM | 4
